{"source": "patent EP4751739A1", "about": "(Jiangsu Hengrui Pharmaceuticals Co., Ltd., dated 2025)", "binders": {"B1": {"name": "antibody-drug conjugate-1 (ADC-1) (antibody, human IgG2, kappa, V domains shown)", "VH": "QVQLVESGGGVVQPGRSLRLSCAASGFSLSNYGVHWVRQAPGKGLEWLAVIWSGGSTNYAAAFVSRLTISKDNSKNTVYLQMNSLRAEDTAVYYCARNHDNPYNYAMDYWGQGTTVTVSS", "VL": "DIVLTQSPDSLAVSLGERATINCRADKSVSTSTYNYLHWYQQKPGQPPKLLIYLASNLASGVPDRFSGSGSGTDFTLTISSLQAEDVAVYYCQHSRDLPPTFGQGTKLEIKR", "modifications": "compound 9-A may also be coupled to reduced cysteines of this chain; positions not given; compound 9-A (maleimidocaproyl-GGFG linker with exatecan derivative) coupled to cysteines of the TCEP-reduced antibody; positions not given; target DAR n = 5.3, found n = 4.7-5.9 per antibody"}, "B2": {"name": "Ab-10 humanized antibody (antibody, human IgG2, kappa, V domains shown)", "VH": "QVQLVESGGGVVQPGRSLRLSCAASGFSLSNYGVHWVRQAPGKGLEWLAVIWSGGSTNYAAAFVSRLTISKDNSKNTVYLQMNSLRAEDTAVYYCARNHDNPYNYAMDYWGQGTTVTVSS", "VL": "DIVLTQSPDSLAVSLGERATINCRADKSVSTSTYNYLHWYQQKPGQPPKLLIYLASNLASGVPDRFSGSGSGTDFTLTISSLQAEDVAVYYCQHSRDLPPTFGQGTKLEIKR", "notes": "Humanized anti-c-Met antibody; Embodiments name human IgG2 and kappa constant regions; also called naked antibody Ab-10; Ab-10 Naked antibody"}}, "key": {"[1]": {"biological_target": "T1, human c-Met on tumor cell lines (human, UniProt P08581 25-1390)", "T1 sequence (P08581 25-1390)": "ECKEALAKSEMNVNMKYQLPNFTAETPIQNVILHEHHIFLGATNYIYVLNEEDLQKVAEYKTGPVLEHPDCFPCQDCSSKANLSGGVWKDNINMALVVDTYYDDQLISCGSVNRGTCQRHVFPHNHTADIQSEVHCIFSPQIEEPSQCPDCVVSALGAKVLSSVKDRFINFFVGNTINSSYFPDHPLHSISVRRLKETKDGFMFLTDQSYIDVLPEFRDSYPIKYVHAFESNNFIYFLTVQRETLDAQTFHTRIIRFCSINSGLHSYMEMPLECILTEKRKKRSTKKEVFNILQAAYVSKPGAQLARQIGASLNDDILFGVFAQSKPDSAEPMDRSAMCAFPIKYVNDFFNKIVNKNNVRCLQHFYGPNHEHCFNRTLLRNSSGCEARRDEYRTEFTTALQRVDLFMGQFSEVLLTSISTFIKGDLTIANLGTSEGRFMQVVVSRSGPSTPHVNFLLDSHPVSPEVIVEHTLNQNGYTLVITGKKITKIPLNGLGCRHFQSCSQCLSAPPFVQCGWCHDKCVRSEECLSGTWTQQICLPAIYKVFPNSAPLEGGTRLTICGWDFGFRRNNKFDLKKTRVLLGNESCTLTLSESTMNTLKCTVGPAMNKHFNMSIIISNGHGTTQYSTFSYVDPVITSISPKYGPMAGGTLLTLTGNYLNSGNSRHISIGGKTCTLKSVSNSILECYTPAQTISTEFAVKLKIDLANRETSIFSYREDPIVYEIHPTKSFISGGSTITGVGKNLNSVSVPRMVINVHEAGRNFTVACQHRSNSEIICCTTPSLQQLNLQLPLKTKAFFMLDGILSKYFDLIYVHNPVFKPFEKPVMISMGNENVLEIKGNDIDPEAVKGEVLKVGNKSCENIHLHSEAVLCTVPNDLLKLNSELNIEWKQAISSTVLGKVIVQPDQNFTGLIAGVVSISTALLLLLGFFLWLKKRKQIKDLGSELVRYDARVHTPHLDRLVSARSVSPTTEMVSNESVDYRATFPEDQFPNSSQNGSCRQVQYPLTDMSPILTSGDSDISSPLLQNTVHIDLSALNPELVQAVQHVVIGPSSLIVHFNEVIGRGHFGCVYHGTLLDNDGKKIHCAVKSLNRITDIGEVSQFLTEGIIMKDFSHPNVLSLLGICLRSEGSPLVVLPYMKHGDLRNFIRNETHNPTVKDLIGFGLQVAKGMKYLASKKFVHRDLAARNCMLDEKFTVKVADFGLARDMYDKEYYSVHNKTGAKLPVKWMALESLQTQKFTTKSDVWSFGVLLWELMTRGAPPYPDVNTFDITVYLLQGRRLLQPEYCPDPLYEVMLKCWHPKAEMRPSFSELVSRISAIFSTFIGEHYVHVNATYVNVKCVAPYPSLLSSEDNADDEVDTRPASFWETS", "test": "cell-based or functional assay"}, "[2]": {"biological_target": "T1, human c-Met on tumor cell lines", "test": "cell-based or functional assay", "remark": "listed apart in the source"}, "[3]": {"biological_target": "T2, Cynomolgus monkey c-Met protein (cynomolgus monkey)", "T2 construct": "Soluble analyte in Biacore; also called cyno-c-Met", "test": "SPR (Biacore 8K), ADC captured on Protein A chip, c-Met protein as analyte, 25 °C, 1:1 Langmuir fit"}, "[4]": {"biological_target": "T2, Cynomolgus monkey c-Met protein", "test": "SPR (Biacore 8K), antibody captured on Protein A chip, c-Met protein as analyte, 25 °C, 1:1 Langmuir fit"}}}
{"binder": "B1", "values": [{"measurement": "IC50 for the inhibition of proliferation, EBC-1 cells (c-Met expression High), CellTiter Glo, 6 days", "setting": "[1]", "result": 0.065, "unit": "nM"}, {"measurement": "IC50 for the inhibition of proliferation, HCT116 cells (c-Met expression Low), CellTiter Glo, 6 days", "setting": "[1]", "result": 23.9, "unit": "nM"}, {"measurement": "IC50 for the inhibition of proliferation, Hs 746T cells (c-Met expression High), CellTiter Glo, 6 days", "setting": "[1]", "result": 0.125, "unit": "nM"}, {"measurement": "IC50 for the inhibition of proliferation, MKN-45 cells (c-Met expression High), CellTiter Glo, 6 days", "setting": "[1]", "result": 0.055, "unit": "nM"}, {"measurement": "IC50 for the inhibition of proliferation, NCI-H441 cells (c-Met expression Moderate), CellTiter Glo, 6 days", "setting": "[1]", "result": 0.48, "unit": "nM"}, {"measurement": "IC50 for the inhibition of proliferation, NCI-H1299 cells (c-Met expression Low), CellTiter Glo, 6 days", "setting": "[1]", "result": "> 200", "unit": "nM"}, {"measurement": "IC50 for the inhibition of proliferation, NCI-H1993 cells (c-Met expression High), CellTiter Glo, 6 days", "setting": "[1]", "result": 0.181, "unit": "nM"}, {"measurement": "IC50 for the inhibition of proliferation, NCI-N87 cells (c-Met expression Low), CellTiter Glo, 6 days", "setting": "[1]", "result": "> 200", "unit": "nM"}, {"measurement": "IC50 for the inhibition of proliferation, SW480 cells (c-Met expression Low), CellTiter Glo, 6 days", "setting": "[1]", "result": "> 200", "unit": "nM"}, {"measurement": "Endocytosis ratio% at 0 h, EBC-1 cells, 20 nM, flow cytometry", "setting": "[2]", "result": 0, "unit": "%"}, {"measurement": "Endocytosis ratio% at 0.5 h, EBC-1 cells, 20 nM, flow cytometry", "setting": "[2]", "result": 30.2, "unit": "%"}, {"measurement": "Endocytosis ratio% at 2 h, EBC-1 cells, 20 nM, flow cytometry", "setting": "[2]", "result": 61, "unit": "%"}, {"measurement": "Endocytosis ratio% at 4 h, EBC-1 cells, 20 nM, flow cytometry", "setting": "[2]", "result": 80.6, "unit": "%"}, {"measurement": "Endocytosis ratio% at 24 h, EBC-1 cells, 20 nM, flow cytometry", "setting": "[2]", "result": 98.2, "unit": "%"}, {"measurement": "Kd", "setting": "[3]", "result": 48.5, "unit": "nM"}]}
{"binder": "B2", "values": [{"measurement": "IC50 for the inhibition of proliferation, EBC-1 cells (c-Met expression High), CellTiter Glo, 6 days", "setting": "[1]", "result": 0.051, "unit": "nM"}, {"measurement": "IC50 for the inhibition of proliferation, HCT116 cells (c-Met expression Low), CellTiter Glo, 6 days", "setting": "[1]", "result": "> 200", "unit": "nM"}, {"measurement": "IC50 for the inhibition of proliferation, Hs 746T cells (c-Met expression High), CellTiter Glo, 6 days", "setting": "[1]", "result": 0.134, "unit": "nM"}, {"measurement": "IC50 for the inhibition of proliferation, MKN-45 cells (c-Met expression High), CellTiter Glo, 6 days", "setting": "[1]", "result": 0.176, "unit": "nM"}, {"measurement": "IC50 for the inhibition of proliferation, NCI-H441 cells (c-Met expression Moderate), CellTiter Glo, 6 days", "setting": "[1]", "result": "> 200", "unit": "nM"}, {"measurement": "IC50 for the inhibition of proliferation, NCI-H1299 cells (c-Met expression Low), CellTiter Glo, 6 days", "setting": "[1]", "result": "> 200", "unit": "nM"}, {"measurement": "IC50 for the inhibition of proliferation, NCI-H1993 cells (c-Met expression High), CellTiter Glo, 6 days", "setting": "[1]", "result": 0.203, "unit": "nM"}, {"measurement": "IC50 for the inhibition of proliferation, NCI-N87 cells (c-Met expression Low), CellTiter Glo, 6 days", "setting": "[1]", "result": "> 200", "unit": "nM"}, {"measurement": "IC50 for the inhibition of proliferation, SW480 cells (c-Met expression Low), CellTiter Glo, 6 days", "setting": "[1]", "result": "> 200", "unit": "nM"}, {"measurement": "Endocytosis ratio% at 0 h, EBC-1 cells, 20 nM, flow cytometry", "setting": "[2]", "result": 0, "unit": "%"}, {"measurement": "Endocytosis ratio% at 0.5 h, EBC-1 cells, 20 nM, flow cytometry", "setting": "[2]", "result": 24.5, "unit": "%"}, {"measurement": "Endocytosis ratio% at 2 h, EBC-1 cells, 20 nM, flow cytometry", "setting": "[2]", "result": 62.6, "unit": "%"}, {"measurement": "Endocytosis ratio% at 4 h, EBC-1 cells, 20 nM, flow cytometry", "setting": "[2]", "result": 83, "unit": "%"}, {"measurement": "Endocytosis ratio% at 24 h, EBC-1 cells, 20 nM, flow cytometry", "setting": "[2]", "result": 98.4, "unit": "%"}, {"measurement": "Kd", "setting": "[4]", "result": 47.9, "unit": "nM"}]}
